Patent US20180186871A1 (SINGAPORE HEALTH SERVICES PTE, published 2018)

T1: human IL-11 (human, UniProt P20809 22-199)
T1 sequence (looked up): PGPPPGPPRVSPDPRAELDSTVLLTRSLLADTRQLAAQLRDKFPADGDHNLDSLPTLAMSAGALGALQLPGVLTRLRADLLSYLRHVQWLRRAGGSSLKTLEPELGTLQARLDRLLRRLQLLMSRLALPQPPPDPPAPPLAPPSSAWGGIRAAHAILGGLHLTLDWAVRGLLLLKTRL

B1: YU112-E07 (scFv)
scFv: QVQLVQSGGGVVQPGRSLRLSCAASGFTFGSYGMHWVRQAPGKGLEWVAVISYDGSNKYYADSVKGRFTISRDNSKNTLYLQMNSLRAEDTAVYYCAKGSYYFDYWGQGTLVTVSSGSASAPKLEEGEFSEARVEIVMTQSPDSLAVSLGERATINCKSSQSVNSAYLAWYQHKPGQPPRLLIYGASRRVTGVPDRFSGSGSGTDFTLTISSLQPEDFATYYCQQSYSDPRWTFGQGTKVEIK
B2: YU45-G7 (Fc fusion)
VH: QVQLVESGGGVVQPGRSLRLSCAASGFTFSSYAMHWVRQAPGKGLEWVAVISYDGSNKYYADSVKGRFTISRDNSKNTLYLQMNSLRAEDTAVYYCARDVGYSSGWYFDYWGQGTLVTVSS
VL: QSVLTQPPSVSAAPGRTVTISCSGSYSNVGSNLVSWYQQLPGTAPKLVIYEDDKRLSGIPDRFSGSKSGTSASLAISGLQSEDEADYYCAAWDDSLKGHVFGGGTQLTVL
notes: tested as scFv-Fc (human IgG1); also called #33
B3: YU45-C11/A10 (Fc fusion)
VH: EVQLLESGGGVVQPGRSLRLSCAASGFTFSSYAMHWVRQAPGEGLEWVAVISYDGSNKYYADSVKGRFTISRDNAKDSLYLQMNSLRDEDTAVYYCARRGYFDYWGQGTLVTVSS
VL: QSALTQPASVSGSPGQSITISCTGTSSDVGGYNYVSWYQQHPGKAPKLMIYDVSNRPSGVSNRFSGSKSGNTASLTISGLQAEDEADYYCSSYTSSSTVVFGGGTKLTVL
notes: tested as scFv-Fc (human IgG1); also called #6
B4: YU45-H11/D12 (Fc fusion)
VH: EVQLLESGGGVVQPGRSRRLSCAASGFTFSSYGMHWVRQAPGKGLEWVAVISYDGSNKYYADSVKGRFTISRDNSKNTLYLQMNSLRAEDTAVYYCAKLYSGSSNFDYWGQGTLVTVSS
VL: QSALTQPASVSGSPGQSITISCTGTSSDVGGYNYVSWYQQHPGKAPKLMIYDVSNRPSGVSNRFSGSKSGNTASLTISGLQAEDEADYYCSSYTSSSTWVFGGGTKLTVL
notes: tested as scFv-Fc (human IgG1); also called #9
B5: YU45-H3 (Fc fusion)
VH: EVQLVESGGGVVQPGRSLRLSCAASGFTFSSYAMHWVRQAPGKGLEWVAVISYDGSNKYYADSVKGRLTISRDNSKNTLYLQMNSLRAEDTAVYYCARMVNLYYGDAFDIWGQGTMVTVSS
VL: QSALTQPASVSGSPGQSITISCTGTSSDVGGYNYVSWYQQHPGKAPKLMIYDVSNRPSGVSNRFSGSKSGNTASLTISGLQAEDEADYYCSSYTSSSTVVFGGGTKLTVL
notes: tested as scFv-Fc (human IgG1); also called #25
B6: YU45-H10 (Fc fusion)
VH: EVQLLESGGGVVQPGRSRRLSCAASGFSLNSYGMHWVRQAPGKGLEWVAVISYDGSNKYYADSVKGRFTISRDNSKNTLYLQMNSLRAEDTAVYYCAKLYSGSSNFDYWGQGTLVTVSS
VL: QSALTQPASVSGSPGQSITISCTGTSSDVGGYNYVSWYQQHPGKAPKLMIYDVSNRPSGVSNRFSGSKSGNTASLTISGLQAEDEADYYCSSYTSSSTWVFGGGTKLTVL
notes: tested as scFv-Fc (human IgG1); also called #22
B7: YU45-G1 (Fc fusion)
VH: EVQLLESGGGVVQPGRSLRLSCAASGFTFSSYGMHWVRQAPGKGLEWVAVISYDGSNKYYADSVKGRFTISRDNSKNTLYLQMNSLRAEDTAVYYCAKLSGPNGVDYWGQGTLVTVSS
VL: QSALTQPRSVSGSPGQSVTISCTGTSSDVGGYNYVSWYQQHPGKAPKLMIYDVSKRPSGVPDRFSGSKSGNTASLTVSGLQAEDEADYYCCSYAGSYTFVFGGGTKLTVL
notes: tested as scFv-Fc (human IgG1); also called #11
B8: YU46-E3 (Fc fusion, not shown: a dimerising Fc or GST; small tags and cut ends)
VH: QVQLVESGGGVVQPGRSLRLSCAASGFTFSSYGMHWVRQAPGKGLEWVAVISYDGSNKYYADSVKGRFTISRDNSKNTLYLQMNSLRAEDTAVYYCARIGGYDDFDYWGQGTLVTVSS
VL: QSALTQPASVSGSPGQSITISCTGTSSDVGGYNYVSWYQQHPGKAPKLMIYDVSNRPSGVSNRFSGSKSGNTASLTISGLQAEDEADYYCSSYTSSSTWVFGGGTKLTVL
notes: tested as scFv-Fc (human IgG1); also called #50
B9: YU45-A8/C6 (Fc fusion)
VH: QVQLVESGGGVVQPGRSLRLSCAASGFTFSSYGMHWVRQAPGKGLEWVAVISYDGSNKYYADSVKGRFTISRDNSKNTLYLQMNSLRAEDTAVYYCAKLSGPNGVDYWGQGTLVTVSS
VL: QSALTQPASVSGSPGQSITISCTGTSSDVGGYNYVSWYQQHPGKAPKLMIYDVGNRPSGVSNRFSGSKSGNTASLTISGLQAEDEADYYCSSYTSGSTWVFGGGTKLTVL
notes: tested as scFv-Fc (human IgG1); also called #27
B10: YU45-B6 (Fc fusion)
VH: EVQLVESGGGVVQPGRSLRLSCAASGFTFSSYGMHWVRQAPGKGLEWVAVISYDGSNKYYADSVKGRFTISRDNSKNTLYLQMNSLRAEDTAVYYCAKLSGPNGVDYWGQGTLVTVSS
VL: QSALTQPRSVSGSPGQSVTISCTGTSRDVGGYNYVSWYQQHPGEAPKLMIFDVSKRPSGVPDRFSGSKSGNTASLTISGLQAEDEADYYCCSYADYYTWVFGGGTKVTVL
notes: tested as scFv-Fc (human IgG1); also called #36
B11: YU100-E06 (scFv)
scFv: QVQLVESGGGVVQPGRSLRLSCAASGFTFSSYGMHWVRQAPGKGLEWVAVISYDGSNKYYADSVKGRFTISRDNSKNTLYLQMNSLRAEDTAVYYCAKIGATDPLDYWGQGTLVTVSSGSASAPKLEEGEFSEARVQSALTQPASVSGFPEQSITISCTGTSSDVGGYDYVSWYQQHPGKAPKLMIYDVTNRPSGVSNRFSGSKSGNTASLTISGLQPEDEADYYCSSYTSNTTWVFGGGTKLTVLRQPKAAPSVTLFPPSS
B12: YU100-E05 (scFv)
scFv: EVQLVQSGGGVVQPGRSLRLSCAASGFTFSSYGMHWVRQAPGKGLEWVAVISYDGSNKYYADSVKGRFTISRDNSKNTLYLQMNSLRAEDTAVYYCAKIGATDPLDYWGQGTLVTVSSGSASAPKLEEGEFSEARVQAVLTQPRSVSGSPGQSVTISCTGTSSDVGGYNYVSWYQQHPGKAPKLMIYDVSKRPSGVPDRFSGSKSGNTASLTISGLQAEDEADYYCCSYAGSYSWVFGGGTKLTVLGQPKAAPSVTLFPPSS
B13: YU100-E04 (scFv)
scFv: QVQLQQSGGGVVQPGRSLRLSCAASGFTFSSYGMHWVRQAPGKGLEWVAVISYDGSNKYYADSVKGRFTISRDNSKNTLYLQMNSLRAEDTAVYYCAKIGATDPLDYWGQGTLVTVSSGSASAPKLEEGEFSEARVQSALTQPRSVSGSPGQSVTISCTGTSSDVGGYNYVSWYQQHPGKTPKLMIYDVTKRPSGVPDHFSGSKSGNTASLTISGLQAEDEADYYCCSYAGSHIWVFGGGTKLTVLGQPKAAPSVTLFPPSS
B14: YU100-D05 (scFv)
scFv: QVQLQQSGGGVVQPGRSLRLSCAASGFTFSSYGMHWVRQAPGKGLEWVAVISYDGSNKYYADSVKGRFTISRDNSKNTLYLQMNSLRAEDTAVYYCAKIGATDPLDYWGQGTLVTVSSGSASAPKLEEGEFSEARVQSALTQPASVSGSPGQLITISCTGTNSDVGGYNYVSWYQQHPGKAPKLMIYDVSNRPSGVSNRFSGSKSGNTASLTISGLQAEDEADYYCCSYAGSYTWVFGGGTKLTVLGQPKAAPSVTLFPPSS
B15: YU100-D11 (scFv)
scFv: QVQLVQSGGGVVQPGRSLRLSCAASGFTFSSYGMHWVRQAPGKGLEWVAVISYDGSNKYYADSVKGRFTISRDNSKNTLYLQMNSLRAEDTAVYYCAKIGATDPLDYWGQGTLVTVSSGSASAPKLEEGEFSEARVQSALTQPRSVSGSPGQSVTISCTGTSSNVGGYNYVSWYQQHPGKAPKLMIYDVSKRPSGVPDRFSGSKSGNTASLTISGLQAEDEANYYCASYAGNYNWVFGGGTKLTVLGQPKAAPSVTLFPPSS
B16: YU100-D02 (scFv)
scFv: QVRLVQSGGGVVQPGRSLRLSCAASGFTFSSYGMHWVRQAPGKGLEWVAVISYDGSNKYYADSVKGRFTISRDNSKNTLYLQMNSLRAEDTAVYYCAKIGATDPLDYWGQGTLVTVSSGSASAPKLEEGEFSEARVQSALTQPRSVSGSPGQSVTISCTGTSGDVGTYNYVSWYQQHPGKAPKLMIFDVSKRPSGVPDRFSGSKSGNTASLTISGLQAEDEADYYCNSYAGSYTWVFGGGTKLTVLGQPKAAPSVTLFPPSS
B17: YU45-D9/D3 (Fc fusion)
VH: EVQLVESGGGVVQPGRSLRLSCAASGFTFSSYGMHWVRQAPGKGLEWVAVISYDGSNKYYADSVKGRFTISRDNSKNTLYLQMNSLRAEDTAVYYCARLHFSQYFSTIDAFDIWGQGTMVTISS
VL: QSVLTQPPSVSAAPGQEVTISCSGSSSNIGNNYVSWYQHLPGTAPKLLIYDNTERPSGIPDRFSGSRSGTSVTLGITGLQTGDEADYYCGTWDSSLSGGVFGGGTKLTVL
notes: tested as scFv-Fc (human IgG1); also called #31
B18: YU100-E01 (scFv)
scFv: QVQLQQSGGGVVQPGRSLRLSCAASGFTFSSYGMHWVRQAPGKGLEWVAVISYDGSNKYYADSVKGRFTISRDNSKNTLYLQMNSLRAEDTAVYYCAKIGATDPLDYWGQGTLVTVSSGSASAPKLEEGEFSEARVQSALTQPASVSGSPGQSITISCTGTSNDIGAYNYVSWYQQHPGKAPKLLIYDVNNRPSGVSDRFSGSKSGNTASLTISGLQAEDEADYYCCSYAGSYSWVFGGGTKLTVLGQPKANPTVTLFPPSS

Legend:
human IL-11 [1] = target: T1, human IL-11; test: cell-based or functional assay
human IL-11 [2] = target: T1, human IL-11; test: EC50 from the indirect ELISA titrations of FIGS. 28A-28F on plate-coated recombinant human IL-11 (five-parameter fit), ng/ml is the concentration unit of FIG. 28 and paragraph 502

Row | Binder | MMP2 production (ng/ml), TGFB1-stimulated human atrial fibroblasts, Experiment 1 (NEG 42.7, POS 70.2) (human IL-11 [1]) [ng/mL] | MMP2 production (ng/ml), TGFB1-stimulated human atrial fibroblasts, Experiment 2 (NEG 36.2, POS 62.3) (human IL-11 [1]) [ng/mL] | EC50 (human IL-11 [2]) [µg/mL]
1 | B1 | 53.5 | 49.1 | –
2 | B2 | – | – | 0.0101
3 | B3 | – | – | 0.0677
4 | B4 | – | – | 0.0146
5 | B5 | – | – | 0.126
6 | B6 | – | – | 0.0248
7 | B7 | – | – | 0.0428
8 | B8 | – | – | 0.707
9 | B9 | – | – | 0.71
10 | B10 | – | – | 4.98
11 | B11 | 54.1 | 48.2 | –
12 | B12 | 56.3 | 50.2 | –
13 | B13 | 50 | 43.5 | –
14 | B14 | 53.3 | 48.8 | –
15 | B15 | 51.2 | 47.2 | –
16 | B16 | 49.6 | 42.2 | –
17 | B17 | – | – | 0.71
18 | B18 | 59.3 | 51.8 | –
